Test results reported in article PMC6582607, “Development of a novel ssDNA aptamer targeting neutrophil gelatinase-associated lipocalin and its application in clinical trials”.

What was measured:
[1] = molecular target: T1, NGAL (neutrophil gelatinase-associated lipocalin) (UniProt P80188 21-198); test: magnetic bead pull-down, qPCR; binding buffer (composition and pH not in material), room temperature, 1 h, NGAL-coated magnetic beads (about 0.20 ug NGAL per uL beads)
[2] = molecular target: T1, NGAL (neutrophil gelatinase-associated …); test: magnetic bead pull-down, qPCR; 20 nM; binding buffer (composition and pH not in material), room temperature, 1 h, NGAL-coated magnetic beads (about 0.20 ug NGAL per uL beads)

T1 sequence (P80188 21-198): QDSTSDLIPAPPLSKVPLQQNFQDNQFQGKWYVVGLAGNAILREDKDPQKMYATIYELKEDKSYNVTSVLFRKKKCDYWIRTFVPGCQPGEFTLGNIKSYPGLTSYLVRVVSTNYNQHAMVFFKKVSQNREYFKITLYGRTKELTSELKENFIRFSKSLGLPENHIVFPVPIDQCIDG

B1: NA36 (ssDNA)
DNA: AGCAGCACAGAGGTCAGATGCCCATATGCTACTTTGCACACATCCTGGATAGGCTCCTATGCGTGCTACCGTGAA
Work on B1 yielded a Kd [1] of 0.0436 µM.

B2: NA42 (ssDNA)
DNA: AGCAGCACAGAGGTCAGATGCCGTGCGGATGTACAGGGACTTGGATAGTTTCTGACCTATGCGTGCTACCGTGAA
For B2, the Kd [1] was 0.0665 µM.

B3: NA40 (ssDNA)
DNA: AGCAGCACAGAGGTCAGATGGCGCTGGATAGCAAGATCACGTTATCATCGTAAACCCTATGCGTGCTACCGTGAA
With B3 the binding signal [2] was > 4 dCt (cycles vs bare beads).

B4: NA53 (ssDNA)
DNA: AGCAGCACAGAGGTCAGATGGCGCTGGATAGCAAGATCACGTTATCATCGTAAACCCTATGCGTGCTACCGTGAA
In the case of B4, the Kd [1] is reported as 0.0325 µM.

B5: NA27 (ssDNA)
DNA: AGCAGCACAGAGGTCAGATGGCGCTGGATAGCAAGATCACGTTATCGTCGTAAACCCTATGCGTGCTACCGTGAA
With B5 the binding signal [2] was > 4 dCt (cycles vs bare beads).

B6: NA37 (ssDNA)
DNA: AGCAGCACAGAGGTCAGATGCCCATATGCTACTTTGCACACATCCTGGATAGGCTCCTATGCGTGCTACCGTGAA
B6 was tested, and the binding signal [2] was > 4 dCt (cycles vs bare beads).

B7: NA39 (ssDNA)
DNA: AGCAGCACAGAGGTCAGATGGCGCTGGATAGCAAGATCACGTTATCATCGTAAACCCTATGCGTGCTACCGTGAA
In the case of B7, the binding signal [2] is reported as > 4 dCt (cycles vs bare beads).
